Source: paper PMC3424240, “Rbm15-Mkl1 Interacts with the Setd1b Histone H3-Lys4 Methyltransferase via a SPOC Domain That Is Required for Cytokine-Independent Proliferation” (PLoS ONE, 2012)

Molecular target: T1, His-SPOC domain (aa 782–977 of Rbm15) (human, UniProt Q96T37 782-977)
T1 construct: cloned in the pBAD/His vector; also called His-tagged Rbm15 SPOC domain; source: E. coli, purified (Ni-NTA agarose), dialyzed against PBS
T1 sequence (looked up): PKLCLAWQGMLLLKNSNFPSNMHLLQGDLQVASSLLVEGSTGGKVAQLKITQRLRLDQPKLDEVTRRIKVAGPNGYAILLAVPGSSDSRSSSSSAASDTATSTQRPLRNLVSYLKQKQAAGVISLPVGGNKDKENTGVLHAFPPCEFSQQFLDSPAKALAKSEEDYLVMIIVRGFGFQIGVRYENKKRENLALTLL
Assay: pull-down; GST pull-down of purified proteins on glutathione-agarose; 20 mM Tris-HCl pH 8.0, 150 mM NaCl, 2 mM EDTA, 0.2% NP-40, 0.5% deoxycholate; 2 h, then beads 1 h; Western blotting and Coomassie staining
Conditions: both partners purified

B1: GST-LSD (aa 542–628 of Setd1b) (domain or fragment, human, UniProt Q9UPS6 542-628, looked up)
chain: PLAPFGTNSQPGFRGPTPPSSRPSSTGLEDISPTPLPDSDEDEELDLGLGPRPPPEPGPPDPAGLLSQTAEVALDLVGDRTPTSEKM
notes: human Setd1b LSD domain, residues 542-628; cloned in the pGEX 4T vector; also called GST-Setd1b LSD domain; source: E. coli, purified
binding result: binds
